System: peptide library, one residue held at a place counted from the S/T acceptor
Test: relative phosphorylation of the sub-library (ratio to the mean residue at this position); higher = residue favoured
Settings: human
How it was run: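 Relative sub-library phosphorylation is a ratio to the mean residue at the same position. Purified recombinant kinases were incubated under kinase-specific conditions with biotinylated degenerate peptide sub-libraries, each fixing one residue at one position around a central Ser/Thr, using 50 μM peptide and 50 μM ATP spiked with γ-32P-ATP for 90 min. Spots captured on streptavidin membranes were phosphorimaged and quantified by densitometry.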

Sequence of TAOK1, construct: aa1-356 (Q7L7X3 1-356, looked up): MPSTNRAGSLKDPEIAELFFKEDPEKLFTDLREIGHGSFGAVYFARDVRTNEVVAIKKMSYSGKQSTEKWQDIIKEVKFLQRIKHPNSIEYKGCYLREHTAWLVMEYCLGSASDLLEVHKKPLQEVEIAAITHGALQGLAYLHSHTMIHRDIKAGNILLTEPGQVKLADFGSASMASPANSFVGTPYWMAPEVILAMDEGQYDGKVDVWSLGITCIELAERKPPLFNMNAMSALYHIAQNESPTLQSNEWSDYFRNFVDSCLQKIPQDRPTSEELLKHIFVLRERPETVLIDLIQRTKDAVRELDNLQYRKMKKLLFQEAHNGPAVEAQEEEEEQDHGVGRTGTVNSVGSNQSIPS
Sequence of SNRK, construct: aa1-505 (Q9NRH2 1-505, looked up): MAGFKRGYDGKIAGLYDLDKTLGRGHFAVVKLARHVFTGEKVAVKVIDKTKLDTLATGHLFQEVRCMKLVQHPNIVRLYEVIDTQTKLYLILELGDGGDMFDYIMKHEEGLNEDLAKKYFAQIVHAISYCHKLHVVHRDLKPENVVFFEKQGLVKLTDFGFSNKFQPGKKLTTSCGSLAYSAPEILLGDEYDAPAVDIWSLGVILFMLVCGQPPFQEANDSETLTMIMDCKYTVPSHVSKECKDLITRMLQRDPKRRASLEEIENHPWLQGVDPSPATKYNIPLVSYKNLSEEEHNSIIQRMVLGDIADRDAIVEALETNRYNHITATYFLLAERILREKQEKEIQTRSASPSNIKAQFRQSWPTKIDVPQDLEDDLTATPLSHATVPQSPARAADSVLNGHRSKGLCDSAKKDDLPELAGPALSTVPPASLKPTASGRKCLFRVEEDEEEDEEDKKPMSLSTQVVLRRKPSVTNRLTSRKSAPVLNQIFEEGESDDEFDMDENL

SNRK, construct: aa1-505 (from UniProt Q9NRH2)
relative phosphorylation
Settings | at +1 | at +2 | at +3 | at +4 | at -1 | at -2 | at -3 | at -4 | at -5
A fixed | 0.817 | 0.313 | 0.573 | 0.725 | 0.876 | 1.27 | 0.886 | 1.12 | 1.07
D fixed | 0.421 | 0.215 | 0.614 | 0.532 | 0.73 | 0.301 | 0.279 | 0.572 | 0.568
E fixed | 0.544 | 0.156 | 0.303 | 0.474 | 0.899 | 0.344 | 0.267 | 0.65 | 0.514
F fixed | 1.81 | 3.56 | 2.34 | 1.08 | 0.944 | 1.31 | 0.898 | 0.944 | 1.27
G fixed | 0.424 | 0.196 | 0.608 | 0.721 | 0.813 | 0.721 | 0.617 | 1.06 | 0.957
H fixed | 0.863 | 0.998 | 1.16 | 0.969 | 1.1 | 1.47 | 1.04 | 1.15 | 1.1
I fixed | 0.829 | 0.912 | 0.61 | 1.16 | 0.811 | 0.587 | 0.631 | 0.861 | 0.921
K fixed | 1.09 | 0.431 | 0.691 | 1 | 1.06 | 1.12 | 1.99 | 1.42 | 1.31
L fixed | 1.05 | 1.36 | 0.88 | 1.78 | 1.3 | 0.616 | 0.9 | 0.94 | 0.815
M fixed | 1.4 | 1.34 | 0.934 | 1.18 | 1.31 | 0.91 | 0.979 | 1.03 | 0.937
N fixed | 0.916 | 0.5 | 1.11 | 0.965 | 0.864 | 1.11 | 0.654 | 0.824 | 0.883
P fixed | 0.171 | 0.276 | 0.354 | 1.02 | 0.823 | 0.426 | 0.613 | 0.748 | 0.807
Q fixed | 1.35 | 0.567 | 0.661 | 1.16 | 1.08 | 1.14 | 0.908 | 0.942 | 0.89
R fixed | 1.63 | 0.865 | 1.1 | 1.06 | 1.45 | 2.44 | 4.04 | 1.5 | 1.69
V fixed | 0.936 | 0.585 | 0.531 | 0.924 | 0.93 | 0.78 | 0.498 | 0.911 | 0.996
W fixed | 1.27 | 2.4 | 2.19 | 1.29 | 0.964 | 1.11 | 0.952 | 1.18 | 1.23
Y fixed | 1.48 | 2.32 | 2.35 | 0.952 | 1.05 | 1.34 | 0.85 | 1.15 | 1.05
pThr fixed | 0.702 | 0.42 | 0.371 | 0.477 | 0.913 | 0.613 | 0.526 | 0.7 | 0.726
pTyr fixed | 0.777 | 0.522 | 0.548 | 0.425 | 1.03 | 0.512 | 0.522 | 0.735 | 0.73

TAOK1, construct: aa1-356 (from UniProt Q7L7X3)
relative phosphorylation
Settings | at +1 | at +2 | at +3 | at +4 | at -1 | at -2 | at -3 | at -4 | at -5
A fixed | 0.401 | 0.732 | 0.799 | 0.651 | 0.775 | 1.05 | 0.861 | 0.969 | 0.986
D fixed | 0.16 | 0.494 | 0.336 | 0.409 | 0.645 | 0.589 | 0.515 | 0.911 | 0.93
E fixed | 0.122 | 0.282 | 0.296 | 0.421 | 0.345 | 0.42 | 0.59 | 0.969 | 0.816
F fixed | 1.53 | 0.505 | 0.853 | 0.835 | 1.07 | 1.74 | 0.817 | 0.95 | 0.933
G fixed | 0.352 | 0.705 | 1.06 | 0.773 | 1.47 | 1.42 | 1.73 | 1.29 | 1.18
H fixed | 0.855 | 1.11 | 0.901 | 1.17 | 1.52 | 0.583 | 0.99 | 1.04 | 1.08
I fixed | 1.83 | 0.612 | 0.692 | 0.786 | 0.381 | 0.577 | 0.533 | 0.696 | 0.757
K fixed | 0.504 | 2.83 | 2.32 | 1.79 | 1.15 | 1.02 | 2.24 | 1.29 | 1.36
L fixed | 1.85 | 0.54 | 0.809 | 0.727 | 1.08 | 0.629 | 0.554 | 0.728 | 0.773
M fixed | 2.05 | 0.721 | 0.686 | 0.861 | 1.45 | 0.92 | 0.661 | 0.873 | 0.88
N fixed | 0.398 | 1.46 | 0.87 | 0.805 | 1.31 | 0.9 | 0.875 | 0.999 | 0.982
P fixed | 0.319 | 0.777 | 1.13 | 0.711 | 0.47 | 0.858 | 0.988 | 1.01 | 1.02
Q fixed | 0.461 | 0.837 | 0.762 | 0.759 | 0.746 | 0.742 | 0.879 | 0.937 | 0.844
R fixed | 0.559 | 3.26 | 2.89 | 2.44 | 1.44 | 1.08 | 1.81 | 1.39 | 1.24
V fixed | 1.21 | 0.723 | 0.602 | 0.635 | 0.419 | 0.658 | 0.505 | 0.765 | 0.821
W fixed | 2.88 | 0.622 | 1.08 | 1.76 | 0.996 | 1.13 | 1.06 | 1.05 | 1.21
Y fixed | 1.52 | 0.794 | 0.916 | 1.46 | 1.73 | 2.68 | 1.39 | 1.13 | 1.18
pThr fixed | 0.365 | 0.32 | 0.327 | 0.386 | 0.306 | 0.469 | 0.667 | 0.78 | 0.881
pTyr fixed | 0.295 | 0.337 | 0.45 | 0.432 | 1.56 | 0.733 | 0.622 | 0.777 | 0.963

— the supplement of paper PMC9876800
